Values quoted from earlier work as cited in publication PMC3050111.
Where two headings read alike, the source gives them in different places. Each block holds one substance with its values, some of them ahead of it.

Tests used:
[1] = target: integrin αVβ3 (Homo sapiens) (UniProt P06756)
[2] = target: integrin αVβ3 (Homo sapiens) (UniProt P06756); remark: listed apart in the source
[3] = target: integrin αVβ3 (Homo sapiens) (UniProt P06756); remark: listed apart in the source

Substance: Tat (from UniProt P04326)
Kd [1]: 32 nM

Kd [2]: 27 nM
Substance: fibrinogen (from UniProt P02671)

Kd [3]: 64 nM
Substance: vitronectin (from UniProt P04004)
